The values that follow come from the DeepSol protein solubility set.

The series can be described thus: soluble on expression in E. coli; label from the status in PepcDB or PDB records.
Regarding “GPGSMDEFVYNRCSLNPIHWVLMLKGCLVDLFFSVRPINFSYSRVGMTNLAGERDQAACLREIRRAVRIIEGRKRTVATGTNKDSFQDMDSRCHTPERPLRLHLVLFGFSRGATTTFYTAMKLPPELATYVSLVVVEAAFDTLHNVIESSCWFPSFVLWFFRTFCDYSGEDAYKYDRNQIHLRCPIAFVMSVKDTRVPNELTQRLIDNVKADCPQIPAVEVLQLKHSRHPLMAVGNREDQDAYVAFMEGLYDRYCN”, the “soluble on expression in E. coli” value was “not soluble”.
To “GPGSMDKDVDVTKLTAQALQVHIERCERLMKQPALLSRLPDGGNGIRERYSKYLAEVERRKTNGAASALTAQKDGDGEVRDEDEAQSRPAAVEGCQDEKTVGDTTTAEVTYEEEARAIGERHRHFRVPVEEIVRRTFGGSLCDSELQRIINDVPPGFFLTYEETMSMERKLMEEERAETLERLRRQRSAGGVQ” belongs “soluble”.
For “GPGSMEDAHMLVATDDADVAYFGIFDGHSNAECSAYVARELPQRLKKLPESITAEMLEKVCIEVDEAYMKTSTEGGTTGTFCVIRKDLTVTIANVGDSRILVCRGGKLIFATEDHKPYIPGETERIVACGGSVVSNRVDGDLAVSRAFGDASFKVKGTKDYRMQKVIAVPDVSVLQCEPNDFIILACDGVFEGNFSNEDVCQFVWEQQQNCWDDLAVVACRVCDEAIRCGSKDNISCLVVQLAEGASRVKAFGATSFVPGPPFPRNQQPCRAAYAQMAELGHTTTAAALQTRYQLLQAFSKNKLNSQPPVMRTAFEMSDEVDVETEWSFFGKGPAPGNEKNFFEALANTGNSS”, the “soluble on expression in E. coli” value is recorded as “not soluble”.
Then “GPGSMELTEEERGLLILRLHQVLRPFLLRRTKADVDSTLRMTFHHMWCPLSAMQQRLLCMLREQRRIPTVLGMAGGYSGKSSSSSEADNEEEEEAAGAADAAAHTSTFPAAEIGADESTGCTPYIAVAALAADALHGKASPDLDPLQARNETAMPRDRLAELVWRHLPALASTESSDILRCAVQQDRALGLTSAGVSESSARLVCNHAFLLPFFSQVLHRHGLDEVTQEGCNDADAAAVATSESSVVGAEAAERCGAAGLTLACSGKFLVLHLLLSRLYVAQRKVVLFTHWLNCVDLLVDYLYSRGWADHAEVLTGGSSEAERLTSVRRFREDPGCLFFLLSIKAGGCGINLQAAHMVVLVDRDYTVTNEDQALARVYRIGQRYTVRAVYLATTDSSEQHVAQRATAKNKPRQAIINDGVYQVTTASEGERVGETGEAVTAAKFADPPSHAYNELDTSELWRSISGATTPPSPTTAMQEARRPECDGTASGAARPAPFSLPPPEAFWVALSCLVESMDELVLTEEDRAAATVRSAEEERRSMGCTPANSAAARLLATRPPRSTAELHLRLQGGRDEMFSGPQRERGVAPSLSGTAASDAYLGVWKQSAEAPTTGDRTRSHTPSEPQAAALAAAPQPTPRSAPVTDPLQNSALFWLEYSHLLRIAGRGPYLLSDSLRVAVTNDTRKNDPEERVRRRQRRDRRVAKRLRLASVDVPDDFREACWAKEGIDDDAEVAERYLRFLDANAGKRRQRRRKDAG”, with “not soluble”; and “GPGSMFDLTGRKALVTGATGGLGEAIARALHAQGAIVGLHGTREEKLKELAAELGERIFVFPANLSDREAVKALGQKAEEEMGGVDILVNNAGITRDGLFVRMSDEDWDAVLTVNLTSVFNLTRELTHPMMRRRNGRIINITSIVGVTGNPGQANYCASKAGLIGFSKSLAQEIASRNVTVNCIAPGFIESAMTGKLNEKQKDAIMGNIPMKRMGVGADIAAAVVYLASDEAAYVTGQTLHVNGGMAMI”, with “soluble”; and “GPGSMFGRSALCLAKRFRYNTKYPSLVSYNKLPWEILNHETPEFHMHVAPHYEQIMTLAASTHVPHIVGKKHLEMPPEHRLRLLPGMFYMLDGDSIPEGFTANRVLDPTALQYYGRLESLVAPVQAVRMLISDDLRIVCNSVTLQGPLQLPVASYASLASLEVVTNKASASFTLFHFVRPNRPPSELQLEKYYIHAPRAMALAEFNSTSNTSWEPKLQAPKRSKRVTPLPAYRPPQSYLMGLAERLAVVPGSSFGRRSLMWGHWF”, with “not soluble”.
Then “GPGSMFHNSYQAGFLSILYSIGSKPLQIWDSQVRNGHVKRITDEDIQSSVLEIMGSNVSTCYIVCPANPKQTLGIKLPFLVMIIKNMKKYFSFEVTILDDKNMRRRFRASNYQSTTKVKPFICTMPMRLDEGWNQIQFNLSDFTRRAYGTNYVETLRVQVHANCRIRRLYFSDRLYAEEELPPEFKLFLPIAQQPPAAAAAEQRDIEAADVPQAASAAQ”, with “soluble”; and “GPGSMFTPSTRFLCSARPLLWFGRRGVFAAPHPEKAKTGGEDAFVVHTSGIGVADGVGGYASYGVDPGVYTRNVMKHTLRALQEDDNRGTIGALQALTYGYTEAQKLKQPGGCPVTLVTLLDGRFASVLNLGDCGTICLRSSKLFFATEPQQHSFNCPYQLPEDPPSVGDRTTLEVSEGDVFLCASDGLLDNVDMSDILRHLDAVNRDGCQRVAENLVACACRNGANKGFDSPFAKQARAVGYHYMGGKQDDVTVVVAQLTRGTVAPDDCPSLITELLDVHKT”, with “not soluble”.
Then “GPGSMHSEQSICEFIHMQRELRRCYATMENYEVVIAQLRDDCALSRAQLCRFQQEHAQRGKDVEAQVRAELTEQTNARLSALRQSEASDALCLKTSAGPDRNTTDAAEEYRRDTCQATLDELRRALQEEQSAHAECLARLTEALAAKARWKSRAVELLKWRKQVCGQMYMSSTPSSSSFVAGARAIGTCGALPGVSTISNCASDSQAEPNAGNSASDVSSPSQRLYRPPSPYKPPPCVSSPSEAGKLRSSMTSEASAALPASPYEGGTGACAADKENEKDSSSTPGADISCQSDSTAVSFLSPSTTPAGRVAQALGSGVVVVWPPLAERQEMSTRKSAESSRTQSSTTAAALESGNPALLDDSGKQGLQPSPPTSSVSPGVLPSSVGRYTTSAVGSRTQAGCRLPLVGCEKAVVAAEPLRVMPDPFAFPRPPPSGGVTCTNHSLLSTSDELPTSCDVSAAMASSAAERQCNELLRALLDKEQQLALIAEERTKYKRLYEATQS”, with “not soluble”; and “GPGSMHSTPAKEAEAEGYMRSGKKHLQKKLLQFKANYGGAAEDFDKAARIYTNLRNYPKAREAWTQACEAHSKAHNDFNAANSMEKLGDLASQCICESQSTMSSGSTAGMTAQLSEHLFQDAIHAYEEASKLYGVATNGSKQAAVLKKAADLISRSLATVHYRRPGTSGATTVDTAYLQKEYKRIIPELIELMERNWAATESKPFGLPDIYRSHVLLHLRSGDVEGAVHAEKRMIGIVSTSPADGTYDDSKNLFRILNQPSNAAKVGLEIVVLCLSTSVDDGYTWANIEMGRLGAVFGFCGSSEERAAAALLAAYAERDEDALQEALKTNTCFNFLAADVSRIAKKLTLGSKGHSKETGASVAAAGGPERSAAPPSSSQAPVDASETDSEDLR”, with “soluble”.
As for “GPGSMKRADGRESPRAVRAIHVATNVLANCHSSACVEIGKTRVLCGVRPPQHLVQEYRGTRGRVSCQVHRSLASSSNLDNSGDRDMALALEGVAEQAVVLERIPQLLVGVLIEVVHDDGALWDAATTALCVALTAGGVEVYDTFSACSAALRHDGAIIVDLTREEAAAAMASVVVCSGLSLGGVYYCCHKGACEATTMSQLVQAATKGLQVRKVPLLEQIRNQLV”, the “soluble on expression in E. coli” value was “soluble”.
Consider “GPGSMKRLLDSAKHLLRGGSLGYLASGEPYHPFGEDFGLTVFPDYIQLREKLALRSGYVDVYTQRSASIKLSDGRFQLPPLPKHSFLPLVERLEQDGIVPRGWLNNQTANLYEPEDFIRAHIDNLFVYDDIFAVISLGANALLRFVHVQNGEELDVVIPDGSVYIMSGPSRYVYFHMVLPVEAQRVSIVFRRSILNSDGGFRPVSTPLGDLMPYRSTQILNTLYAKQIGGVRVAVDDKYLEKEEIGAFDTGKWVKGLHPLRDWTLLSQLDEDEARVLELREKRYLDVDLSWRFTELRKRYKELEDMLRV”, for which the “soluble on expression in E. coli” value was “not soluble”.
In the case of “GPGSMLRGTRLMLMMQLHSLPTPNPSCYTFHIPSSTYDNFIPDGQTCDVAHMGLAWVHPLSQGIFEQYPQEVASVFIAPRHTSITVHPHVDWNKLEWSISSFIGHYLVFTNACFPAAAEYALLEDDLVIHEDDSEVLQCIKELVREQVRPMVQRDGGDVKLLNFNEKTGVVSLAMLGACRTCPSSQNTLKDGVERLLKHFLPEVKEVVEAKGHAFYEEYGLLFDSEKALREEAARVDAVRRRKISIYTTAPLMPFEALNEPDGDE”, the “soluble on expression in E. coli” value was “not soluble”.
To “GPGSMLRKVTSPYKVSIRRTAASVTAADSKKAILRLIRFDPETNKQRVESYEYDKHHDYMVLDLITAVKAHQDPTLAFRASCCEGVCGSCAMNINGVNSLACITFSQQVTTVGPLPNFPVIKDFVVDLRHFFRQYAYIRPFVRNVNLDRSRLDNIVERYKTITKVIHGVPSDDEAQLAQLESKSGAQTDVMALLQLLDAVCESGNVTHLIRTLEALQERGMQLDQGKVKALIEETLQNYKKRKLGA” belongs “not soluble”; to “GPGSMMILPHAEEVELRRGSSPATITSTTGRVNRVAVDTSSEENQEAVSQDRLEGRDDAGKSPTTSASPGTSSKKDRFQATSAQVKGALSTPRRAVYEFHDMFGFLVTEEEKAAEDYERRNNGYSRAYLDKWEYMMTHWANVRQDTLKRYCRRGVPQPKRCAVWQHLLQSWGMKDRFPGVYMRLHSQPLDSKDLADVIARDLDRTFPTNRLFSVKSGQGQQILRRLLHAYANYNPGVGYCQGMGFLAATLILQVEEEEDAFWAFVAVMENAKYNMKAVFAPSFPQLQCAFYVFEALMRQKMPKLYAHLHDRHPIPPSFYAVHWFMTIFTYHFNFGLVSRIWDMFFCEGWKPVYRIALALLKIEERRLLSLNTDTELLLVLKGIQESKRPVELLKTALKIRFKSAYMNQLMAEFNAQPS”, “not soluble”; to “GPGSMNFTQQLWSVKEWGRVMATRSEYVQIVHDATNDEKWGPTGPQMDAVCNAYPRGGPEILNELRTRLNNRDKSWRPCYKSLLVIDYLARNVDDRYLPEISALVPIIRTISTSFYYTNPKGVDHGVSVRERAKKVADLLSDGLQLREERMVAAQIKAKLSHNASDGGGPNSDAPYSGAGSYGGSRDCDRYRSYVKGSRQAYDSYRSSPPPSAVLSRPRTKEEQERCDMEMALRLQRDEERRSGVSAEQLEEMYAT”, “soluble”.
Take “GPGSMNVDDFRTVIPSPVYVATRGERSGINVAVRALAPVTDVVFDMEEQFAVVCQRRRFSTYAISSWMESLDVPSIPGAAVPLVSVEPQGFSSLGFALSALQFLSSSLHVIAGYHRAPVVDIFDLENVDEETSEPQQRFNLTDVKENGNVEDGSSAYANDVMPMDRYVSLGALSSGLSVWLDSRSGKAEACTGVLTRQYTIGAHNRHTGRRDPLACVTSLCQGNPANILLGTEAGALQLWDVRCARECVAQHMTSASICRLHPSYSYPLRNVVWLNTLAGCVEAVSVGQSDMELLARRLCPDFQRSSSTFHLPPPRLSFMESSGVVACPHISSGKLLLYDGSSLVKQPNNSRTQLSSYNRGVDGKDNEYENGHCSNFGGFLREASSSSEESGEREIPLLNALPSEANALVTACTVWSNRDMFVLGDETGRVQLL”: the “soluble on expression in E. coli” value is given as “not soluble”.
To “GPGSMPKSKRAKIVPLTKTQAKTREDKDKLIERIREALEDYSDVYTFQLHNIRTNILQQIREERAGDSRIFLGNNKVMMIAIGRDEESAQRQNLHKLSPFLTGLCGLLFTNLSKKEVKEYFATVGAPVYARTGQTATESLVLKGGPLPQFPHSMFDHLAKLGLPIKLDRGVIVLLQDTTVCEPGDTLSAEAAQLLKLFGVQSAKFKMDLTAHWTSGVAKKVSSSASKRSEK” belongs “soluble”.
